Assay results reported in publication PMC7076203.

Biological target: WT APP (amyloid precursor protein) stably expressed in H4-APPwt cells (human) (UniProt P05067)
Sequence (P05067 18-770): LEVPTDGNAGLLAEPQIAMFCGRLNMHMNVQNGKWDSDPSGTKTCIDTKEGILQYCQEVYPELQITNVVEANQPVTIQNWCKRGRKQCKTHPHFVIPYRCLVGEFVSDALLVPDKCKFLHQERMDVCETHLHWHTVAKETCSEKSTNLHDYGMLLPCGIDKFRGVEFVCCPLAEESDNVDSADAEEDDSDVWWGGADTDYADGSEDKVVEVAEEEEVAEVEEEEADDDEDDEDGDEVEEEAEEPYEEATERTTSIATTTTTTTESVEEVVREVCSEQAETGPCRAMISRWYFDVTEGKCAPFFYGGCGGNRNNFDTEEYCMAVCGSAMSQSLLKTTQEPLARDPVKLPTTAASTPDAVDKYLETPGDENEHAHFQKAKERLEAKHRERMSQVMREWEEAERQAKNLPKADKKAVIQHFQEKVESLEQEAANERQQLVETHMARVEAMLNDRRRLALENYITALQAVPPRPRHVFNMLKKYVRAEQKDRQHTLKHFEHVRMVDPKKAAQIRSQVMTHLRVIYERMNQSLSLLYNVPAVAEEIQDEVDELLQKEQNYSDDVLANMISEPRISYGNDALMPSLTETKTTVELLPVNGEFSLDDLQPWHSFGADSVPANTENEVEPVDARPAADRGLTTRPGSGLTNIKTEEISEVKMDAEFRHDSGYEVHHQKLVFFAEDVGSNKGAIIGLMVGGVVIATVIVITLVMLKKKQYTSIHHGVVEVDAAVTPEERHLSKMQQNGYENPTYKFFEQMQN

GAL3BP (preparation not stated), sequence (Q08380 19-585): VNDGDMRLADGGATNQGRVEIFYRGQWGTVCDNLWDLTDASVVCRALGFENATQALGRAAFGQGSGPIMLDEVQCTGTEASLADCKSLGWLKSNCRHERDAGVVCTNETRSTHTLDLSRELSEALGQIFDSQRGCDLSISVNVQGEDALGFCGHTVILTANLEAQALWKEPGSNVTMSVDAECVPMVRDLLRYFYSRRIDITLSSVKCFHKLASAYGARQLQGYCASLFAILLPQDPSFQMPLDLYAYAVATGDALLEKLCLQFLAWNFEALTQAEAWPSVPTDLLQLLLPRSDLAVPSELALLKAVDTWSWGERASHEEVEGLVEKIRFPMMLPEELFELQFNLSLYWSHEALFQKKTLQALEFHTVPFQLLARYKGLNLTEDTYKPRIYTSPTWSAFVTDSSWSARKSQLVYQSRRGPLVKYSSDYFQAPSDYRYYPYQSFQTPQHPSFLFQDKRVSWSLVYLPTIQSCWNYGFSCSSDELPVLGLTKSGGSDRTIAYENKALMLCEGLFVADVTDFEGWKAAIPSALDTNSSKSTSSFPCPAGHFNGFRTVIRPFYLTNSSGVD

- suppression of Aβ40 and Aβ42 production in H4-APPwt cells by GAL3BP: 30%
Substance: GAL3BP (preparation not stated) (from UniProt Q08380 19-585) (natural protein)
